Reference: publication PMC3689846

Legend:
[1] = target: Core.BaL-GT1 (germline-targeting variant of core gp120) (HIV-1 strain BaL (from the name)); test: SPR
[2] = target: eOD-GT1 (HIV-1 strain HxB2); test: SPR

Binder	Kd [1]	Kd [2]
12A12 (mature) (antibody, V domains shown) VH: SQHLVQSGTQVKKPGASVRISCQASGYSFTDYVLHWWRQAPGQGLEWMGWIKPVYGARNYARRFQGRINFDRDIYREIAFMDLSGLRSDDTALYFCARDGSGDDTSWHLDPWGQGTLVIVSA VL: DIQMTQSPSSLSASVGDRVTITCQAGQGIGSSLQWYQQKPGKAPKLLVHGASNLHRGVPSRFSGSGFHTTFSLTISGLQRDDFATYFCAVLEFFGPGTKVEIK	1 nM	
NIH45-46 (mature) (antibody, V domains shown) VH: QVRLSQSGGQMKKPGESMRLSCRASGYEFLNCPINWIRLAPGRRPEWMGWLKPRGGAVNYARKFQGRVTMTRDVYSDTAFLELRSLTSDDTAVYFCTRGKYCTARDYYNWDFEHWGRGAPVTVSS VL: EIVLTQSPATLSLSPGETAIISCRTSQSGSLAWYQQRPGQAPRLVIYSGSTRAAGIPDRFSGSRWGADYNLSISNLESGDFGVYYCQQYEFFGQGTKVQVD		3 nM
